Laboratory results reported in patent EP2468863A1.

Biological target: CEACAM1 expressed on transfected cells (CHO-CEACAM1, HeLa CC1, HeLa-CC1H) (human) (UniProt P13688)
Test: cell-based or functional assay

Sequence of UniProt P13688 (P13688 35-526): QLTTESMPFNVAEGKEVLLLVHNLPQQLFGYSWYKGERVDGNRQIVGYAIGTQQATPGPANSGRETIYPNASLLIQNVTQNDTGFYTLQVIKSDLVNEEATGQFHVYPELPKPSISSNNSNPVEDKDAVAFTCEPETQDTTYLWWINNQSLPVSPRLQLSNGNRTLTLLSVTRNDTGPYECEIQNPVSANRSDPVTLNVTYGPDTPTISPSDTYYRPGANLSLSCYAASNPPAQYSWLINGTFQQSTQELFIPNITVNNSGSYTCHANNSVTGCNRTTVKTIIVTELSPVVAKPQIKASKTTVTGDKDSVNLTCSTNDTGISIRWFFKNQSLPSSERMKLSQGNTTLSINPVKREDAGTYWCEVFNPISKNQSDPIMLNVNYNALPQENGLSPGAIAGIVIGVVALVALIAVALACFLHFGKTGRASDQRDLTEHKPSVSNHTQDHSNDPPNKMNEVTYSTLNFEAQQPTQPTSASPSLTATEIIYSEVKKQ

Q: What does the source list for “recombinant UspA1 fragment 4-7 (peptide)”?
A: inhibition of binding of H. influenzae to CHO-CEACAM1 transfectants: 10 µg per ml; inhibition of binding of M. catarrhalis strain MX1 to CHO-CEACAM1 transfectants: 1 µg/mL
